From the supplement of paper PMC9170038

System: K4 kissing-loop RNA reporter
Test: apparent KD of K4 kissing-loop reporter; higher = weaker reporter binding
Conditions: Eterna round: R107
Experimental: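 RNA-MaP round R107: designed RNA switches with theophylline, tryptophan, arginine or FMN aptamers are transcribed on-chip within common flanks. They are titrated with a labelled K4 kissing-loop RNA reporter in RNA-MaP buffer (100 mM Tris pH 7.5, 80 mM KCl, 4 mM MgCl2), without ligand or with the indicated ligand. Median apparent KD per design.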

[1] = input ligand: theophylline 20 uM
[2] = input ligand: tryptophan 2.4 mM
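Note: bound reporter read as fluorescence of individual clusters on recovered sequencing chips by microscopy, with normalized cluster intensities fitted with a binding model.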

Sequence | apparent KD of K4 kissing-loop reporter (input ligand: FMN 200 uM) [µM] | apparent KD of K4 kissing-loop reporter (input ligand: arginine 13.2 mM) [µM] | apparent KD of K4 kissing-loop reporter (input ligand: none) [µM] | apparent KD of K4 kissing-loop reporter [1] [µM] | apparent KD of K4 kissing-loop reporter [2] [µM]
GGUUCUGGUUUGGAGUGAUGUUCUAAGUGGCAGGAUAUGGAGAGAUCCAGAAGGGCCGUUUGUAUCUUUUUUGUGUGGUUUUUUU [Last Minute #2] | 0.132 | 0.195 | 0.231 | 0.206 | 0.161
CGAGUCCUGAGGAGUGAUGUUCCUCGGCCACGAGGACCGGUACGGCCGCCACUCGUUACUCGGGCUUAGUAGCUAGCACUAAGCU [Quedmaon] | 0.265 | 0.171 | 0.186 | 0.232 | 0.101
GGUAGCAUGGCGGCCGCCACUCUUCAUUAGUGAUGUUAAUGCCGAGUGCGCUAACUCCUACGGGAGAGGACCGGGCCAUGCUACC | 1.22 | 0.00443 | 0.0258 | 0.919 | 0.0146
GGAUCCACCAGUGAUGUUGGAGAAAACUCCAAGGAUAUGACGAAAGUCAGAAGGUGGUAGACUGGGCAAAGUCCGGUCGGAUCCA [FmnA10 G66] | 3.15 | 0.0685 | 0.144 | 0.0499 | 0.355
UUGAUAUGAUAGUAUCCUGUUUGAUAAAGGCAGGAUAUCGAAAAUUCGAGAAGGGCCAUUAUAUGCAGUGAUGUUGCAAAUAAGU [Exclusion FMN A Gf 24] | 0.0768 | 0.0684 | 0.0526 | 0.069 | 0.0436
AAGUGAUGUUGUAGUGAUGUUGUGAUGUUGCAGGAUAUAUAGUGAUGUAGAAGGGUAUGUGCAGUGUUGUUGUUUGAGUGUUCAU [dttyumullin] | 0.0954 | 0.0418 | 0.0737 | 0.0747 | 0.0684
CUGACGCUGAUACGGUGGCCGAUGGUCGUGCGAGGACCGGUACGGCCGCCACUCGCAUGAGUGAUGUUCAUGUGUCGUCGUCGUC [#06 K4 Tryptophan A Exclusion] | 0.135 | 0.115 | 0.13 | 0.106 | 0.142
AUAGGCAUAGCCCGAGUGAUGUUCGACGAUACCAGCCUCGAUAGAGGCCCUUGGCAGCGUAAAUGAUCAUGAAGCCAAGGAAUUA [whbob_Ex_Theo_A_th70] | 0.36 | 0.335 | 0.408 | 0.394 | 0.277
GUGCGGUGGAGGUUACCGCUAUUCUGAGAAGGAGCGCAGAUGACUGCAGGUAGGUCGCUUAGAGCUUGCAGUGAUGUUGCAAGUU [Berienza] | 0.22 | 0.174 | 0.199 | 0.166 | 0.2
UGACUGGAUGGAAGGAGCGCUAAACUCCUAGUGAUGUUAGGGAUACGAGGCAAAGCCUCGAGGCAGGUAGGUCGCCAUCUAGUCU [FiskerMod 24 - Jieux - Same State - Arginine B] | 0.167 | 0.129 | 0.124 | 0.147 | 0.136
GUACGCUCCCGAGUGAUGUUCGGUAAUCGCUAGGAUAUCGCUUUUGCGAGAAGGAGCGGAAUGAGGAAACUCGUUCUGAGUGUAC [FMN A 26] | 0.3 | 0.254 | 0.35 | 0.386 | 0.338
AAUUUAUUAACUGAUACCAGACUAAUUUUAUUUAUUAAGUCAAGUGAUGUUUGACUUUAUGUCCCUUGGCAGCAGAAUUAAUUAA [JR_SSTheophyB_Sub019] | 0.126 | 0.143 | 0.124 | 0.112 | 0.128
UUAGAGAUCUCAGGAUAUGAGUGAUGUUGGUGUCAAGAUCUGAGAUAGAAUUCUAUCUCAGAUCAAUCAGAAGGGAGAUCUCAUU [AK2.2 Exc FMN B] | 0.325 | 0.294 | 0.483 | 0.485 | 0.413
GGUGUUGUUUGUGCUGUUUUCUUUGUUUCUCGAGGACCGGUACGGCCGCCACUCGAGUGAUGUUUGGGUAGCGAUGUUUGUUAGU [Bdazzled - #2 - Exc. Tryptophan A] | 0.463 | 0.28 | 0.355 | 0.383 | 0.411
AGACCACAAAGUGGUCAGUGUUCGCUGCCGCGAGGACCGGUACGGCCGCCACUCGCGAGUGAUGUUCGCGAGGGCAGCGAACACA [Omei KL Tryp A Exc A v4] | 0.0997 | 0.0878 | 0.0879 | 0.0868 | 0.106
AAGUGAUGUUGUAGUGAUGUUGUGAUGUUGCAGGAUAUAUAGUGAUGUAGAAGGGUAUGUGCAGUGUUGUUGUUUGAGUGUUGAU [twwumullin] | 0.0903 | 0.0432 | 0.0747 | 0.0686 | 0.0687
CCUAUCUCUUACGAUACCAGUCAAUGAUAUUUUAUCAAUGCCCUCACCGAGUGAUGUUCGGACCCUUGGCAGCGUCUGGGAUAGG [pvppimullin] | 0.223 | 0.17 | 0.212 | 0.19 | 0.191
CGAGUCCUGAGGAGUGAUGUUCCUCGGCCACGAGGACCGGUACGGCCGCCACUCGUUACUCGGGCUUAGCAGCAAGCACUAAGCU [Acesote] | 0.348 | 0.317 | 0.334 | 0.302 | 0.127
AAUAAAAUCACGGCCGCCACUGAUGCUAAUAUUAGCAGUGAUGUUGCUAUGUAGAUUUUAUUUAACAGGACCGGGUGAAUAUUUA [JR_SSTryptoB_Sub025] | 0.198 | 0.124 | 0.162 | 0.17 | 0.269
AAGUGUGUGGCGGCCGCCACUAGAAUCCAGUGAUGUUGGAGUUAUCAGAUAAAUGAUAAUCAACAUAGGACCGGGCCAUAUAGAA [Same State - Tryptophan B (Freestyle 5)] | 0.703 | 0.689 | 0.455 | 0.63 | 0.425
CUUAUUUCUCGCUAUGAUGUUAGUUGAGCCAAGGAUAUUAAUGAAUUAAGAAGGUGGGUUUUUAAGUGAUGUUUUGAGACUGGCA [theeternabot_exclusion_KL_FMN_A_27] | 0.793 | 0.718 | 0.863 | 0.727 | 0.568
AAAUAUUCGAGUGAUGUUCGAUAAAUUUCAGAGGAUAUGCUUAAAAGCAGAAGGCUGUAUUUCUAUUUGUUAUGAAAUUUUAUAA [JR_ExcFMNA_Sub003] | 0.103 | 0.113 | 0.0873 | 0.109 | 0.0733

Sequence | apparent KD of K4 kissing-loop reporter (input ligand: FMN 200 uM) [µM] | apparent KD of K4 kissing-loop reporter (input ligand: arginine 13.2 mM) [µM] | apparent KD of K4 kissing-loop reporter (input ligand: none) [µM] | apparent KD of K4 kissing-loop reporter [1] [µM] | apparent KD of K4 kissing-loop reporter [2] [µM]
CACUUACGUAGUGAUGUUACGAUCUCUGAUACCAGACAACUCUAAGUCCCUUGGCAGCAGUCAUUUUGCUUCAAAUUUACUCAAA [JR_ExcTheophyA_Sub013] | 0.691 | 0.577 | 0.706 | 0.661 | 0.52
AUCCGGAGUGCGGCCGCCACUAUCGGAUAGAGUGAUGUUCUAUCCGGCCUUAAAGGCGCGAACGAUAGGACCGGGCACUCUAAAU [Quatinti] | 0.121 | 0.124 | 0.136 | 0.128 | 0.122
CUCCAACUUGAUGAUACCAGAGAGGAGGAAGUGAUGUUGACUCCGGCUACAUACUGGCGACUCCCUUGGCAGCAUUACGUCAUCC [theeternabot_sameState_KL_Theo_B_3] | 0.389 | 0.265 | 0.318 | 0.417 | 0.353
AAAAUAAAUCAGUGAUGUUGGUAUCCGGAUACCAGCGAUAAUCAUCGCCCUUGGCAGCCGCGGACGUACAAAAUAAGUACGUCCU [MatMod 15 - Jieux - Same State - Theophylline A] | 0.282 | 0.0892 | 0.218 | 0.24 | 0.131
AAGCAGUCACUCGACGCCAUCGAAGAUGGGCGAGGACCGGUACGGCCGCCACUCGGAGUGAUGUUCUGAAGACUGCAAAAUAAAA [MatMod 7 - Jieux - Exclusion - Tryptophan A] | 0.235 | 0.166 | 0.153 | 0.115 | 0.16
UGUCUUUUUUUGAUGUUUUUUGUAUAAUGGCAGGAUAUCGUAGAGGCGAGAAGGGCUUUUAUGCGUUAUGAGUGAUGUUUGUAGG [vevvmullin] | 0.321 | 0.24 | 0.302 | 0.295 | 0.22
UCUUGCGGCGCAGGAUAUCCGUCUGUCUCCUGCGUCAUUCUGCAGUGAUGUUGCAGGUGACGGAUAGGAGAAGGGCGAACGUACA [Diinonorce] | 0.133 | 0.104 | 0.124 | 0.117 | 0.112
UGACUGGAUGGAAGGAGCGCUAAACUCCUAGUGAUGUUAGGGAAACGAGACAAAGUCUCGAAGCAGGUAGGUCGCCAUCUAGUCU [FiskerMod 14 - Jieux - Same State - Arginine B] | 0.176 | 0.134 | 0.158 | 0.146 | 0.155
UAACUUGCAGUGAUGUUGCAAGAACUGGAUACCAGCAUGGAAACAUGCCCUUGGCAGCCAGAAGCUGGCUGAACAUCACGUCAGU [Design5] | 0.227 | 0.14 | 0.308 | 0.159 | 0.217
UGUAAGCGCGUAGAUACCAGCAGACGAGUGAUGUUCAAAAGAUUAAGGAAAAGAAAGUAAUGCCCUUGGCAGCUAAUCAUAAGCG [whbob_Ex_Theo_B_sa92] | 0.243 | 0.461 | 0.466 | 0.517 | 0.295
CCUUCUCUUGAUAGUGAUGUUGUCAAGGGCAAGGAUAUCAUCUUAAUGAGAAGGUGUCCUUGAUAACAUGGAGGUCUGAAACAGA [Omei KL FMN A Exc C v7] | 0.123 | 0.305 | 0.301 | 0.38 | 0.375
GACUCAUGUAGAAGGAGCGUCAGAAGCUACAGACAUGAGUGAUGUUCAUGUUAGUUGAUUUGACAGGUAGGUCGCUACAGCAGGA [KL-SSArg B15 #analogue] | 0.28 | 0.207 | 0.247 | 0.283 | 0.229
CGUGGUGCUCGCCAGCUGUGCGAGCGGUGGGAGGAUAUGUCGCGAGACAGAAGGCCCAGUGAUGUUGGGCAGGCUCGUAGAUCAA [Orbemaed] | 0.152 | 0.118 | 0.121 | 0.133 | 0.116
UGGACCUGACUCGAUAAGAGUCAAUGAGAUACCAGCCACGAAAGUGGCCCUUGGCAGCUCUGCCAGUGAUGUUGGUCAAGGUCCU [#SwitchBubble 5 #StaticStem] | 1.28 | 0.889 | 1.55 | 0.584 | 1.1
GAACGAGUGAUGUUCGUUGGCAUGCAUUCCGAGGAUAUGGGAUUAGCCAGAAGGCGGAAUCAGUCUUCGAGUGAUGUUCGAAGAU [Same State FMN A GF 12] | 0.112 | 0.104 | 0.116 | 0.104 | 0.111
AAUAGGGAGUGAUGUUCCCUCACUUAUGAUACCAGUGCCAUCGGACACCCUUGGCAGCAUACGGGCAGUGAUGUUGUUCUUGGAA [Exclusion Theophylline A GF 25] | 0.129 | 0.148 | 0.156 | 0.155 | 0.119
AAGAAGAAUGGAAGGAGCGAGCAGAUAUAACCAGUGAUGUUGGAAAGCCUUAUUGCUUAAGCUCAGGUAGGUCGCCAAGAAAAGA [whbob_Ex_Arginine_B_2t151] | 0.162 | 0.153 | 0.172 | 0.193 | 0.212
GUUACGCAUGGAAGGAGCGCACUCCGAUUGGUCGACACAGUGAUGUUGUGGUUCGUUCGAAUGCAGGUAGGUCGCCAUGUGUAAC [Ex Arginine B K4 18] | 0.165 | 0.143 | 0.175 | 0.145 | 0.149
CAUAGGAAACUAUGUUCCUCUCUUACUGAAGGAGCGCGUGAAAACGCAGGUAGGUCGCAGGAUUUGAGAGUGAUGUUCUCAUUAA [Ex Arginine A K4 15] | 0.16 | 0.26 | 0.254 | 0.278 | 0.171
CGGUACGUCGCAGGAUAUGUAAAUGUAAGUGAUGUUUACAUACCAUGCUGGCGAAAGCCAGCAUGGACAGAAGGGCGACGUACCG | 0.111 | 0.354 | 0.47 | 0.328 | 0.506
GGUAGCAUGGCGGCCGCCACUUCAAGUGGAGUGAUGUUCCACGGCAUCGCGAAAGCGAUGCCUGGAAGGACCGGGCCAUGCUACC | 0.738 | 0.739 | 0.72 | 0.761 | 0.284
